Drawing on US20230265151A1, “GIP/GLP1 CO-AGONIST COMPOUNDS” (priority 2020, published 2023), this text covers Ki for nine molecules.

Numbering of substitutions follows the chain as printed. *1 amine or outer side, *2 acyl side, *3 side chain or, on linkers, in order; H or OH if unused. Where no end group is shown, it is not given here. Side-chain parts run from the residue outwards. [ ]: non-standard residue; d: D form. The star is where a group is joined. αMePhe(2-F) = C[C@](N)(Cc1ccccc1F)C(=O)O; γGlu = O=C(O)[C@H](CCC(=O)[*:2])N[*:1]; C14 diacid = O=C(O)CCCCCCCCCCCCC(=O)*; αMeY = C[C@](N)(Cc1ccc(O)cc1)C(=O)O; αMeL = CC(C)C[C@](C)(N)C(=O)O; Nle = CCCC[C@H](N)C(=O)O; Orn = NCCC[C@H](N)C(=O)O; AEEA = NCCOCCOCC(=O)O; Aib = CC(C)(N)C(=O)O

T1: human GIP receptor (human, UniProt P48546 22-466)
T1 construct: whole, on cells; also called hGIPR; human glucose-dependent insulinotropic polypeptide receptor
T1 sequence (looked up): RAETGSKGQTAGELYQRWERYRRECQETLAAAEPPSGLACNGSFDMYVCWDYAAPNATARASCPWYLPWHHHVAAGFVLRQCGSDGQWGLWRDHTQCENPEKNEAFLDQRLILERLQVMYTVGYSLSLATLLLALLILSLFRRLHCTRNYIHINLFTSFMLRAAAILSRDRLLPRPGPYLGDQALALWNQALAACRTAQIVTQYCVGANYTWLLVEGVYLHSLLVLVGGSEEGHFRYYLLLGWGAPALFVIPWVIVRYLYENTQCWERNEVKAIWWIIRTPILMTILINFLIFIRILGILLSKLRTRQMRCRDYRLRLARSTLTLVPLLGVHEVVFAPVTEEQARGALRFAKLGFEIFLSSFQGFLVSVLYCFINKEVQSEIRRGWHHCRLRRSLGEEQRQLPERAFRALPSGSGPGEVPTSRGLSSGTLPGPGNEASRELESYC

B1: Y-Aib-EGT-αMeF(2F)-TSD-4Pal-Aib-I-αMeL-LD-Orn-QAQ-Aib-Orn-FIK((2-[2-(2-Amino-ethoxy)-ethoxy]-acetyl)3-(γ-Glu)-CO-(CH2)12-CO2H)-αMeY-LIK((2-[2-(2-Amino-ethoxy)-e … (peptide)
peptide: YXEGTXTSDXXIXLDXQAQXXFIKXLIKGGPSSGAPPPS
modifications: Aib2, αMeF(2F)6, 4Pal10, Aib11, αMeL13, Orn16, Aib20, Orn21, K24(Z1), αMeY25, K28(Z1), C-term NH2; Z1=AEEA3-(γ-Glu)-CO-(CH2)12-CO2H
B2: Y-Aib-EGT-αMeF(2F)-TSD-4Pal-Aib-I-αMeL-LD-Orn-QAQ-Aib-Orn-FIK(((2-[2-(2-Amino-ethoxy)-ethoxy]-acetyl)-Trx-(γ-Glu)-CO-(CH2)12-CO2H)-αMeY-LIK(((2-[2-(2-Amino-etho … (peptide)
peptide: B1 peptide
modifications: Aib2, αMeF(2F)6, 4Pal10, Aib11, αMeL13, Orn16, Aib20, Orn21, K24(Z1), αMeY25, K28(Z1), C-term NH2; Z1=AEEA-Trx-(γ-Glu)-CO-(CH2)12-CO2H
B3: Y-Aib-EGT-αMeF(2F)-TSD-4Pal-Aib-I-αMeL-LD-Orn-QAQ-Aib-Orn-FIK(PEG6-(γ-Glu)-CO-(CH2)12-CO2H)-αMeY-LIK(PEG6-(γ-Glu)-CO-(CH2)12-CO2H)GGPSSGAPPPS-NH2 (peptide)
peptide: B1 peptide
modifications: Aib2, αMeF(2F)6, 4Pal10, Aib11, αMeL13, Orn16, Aib20, Orn21, K24(Z1), αMeY25, K28(Z1), C-term NH2; Z1=PEG6-(γ-Glu)-CO-(CH2)12-CO2H
B4: Y-Aib-EGT-αMeF(2F)-TSDY-Aib-I-αMeL-LD-Orn-QAQ-Aib-Orn-FIK((2-[2-(2-Amino-ethoxy)-ethoxy]-acetyl)2-(γ-Glu)2-CO-(CH2)12-CO2H)-αMeY-LIK((2-[2-(2-Amino-ethoxy)-etho … (peptide)
peptide: B1 peptide with X10Y
modifications: Aib2, αMeF(2F)6, Aib11, αMeL13, Orn16, Aib20, Orn21, K24(Z1), αMeY25, K28(Z1), C-term NH2; Z1=AEEA2-(γ-Glu)2-CO-(CH2)12-CO2H
B5: Y-Aib-EGT-αMeF(2F)-TSD-4Pal-Aib-I-αMeL-LD-Orn-QAQ-Aib-Orn-FIK((2-[2-(2-Amino-ethoxy)-ethoxy]-acetyl)-(γ-Glu)-(10-(4-carboxyphenoxy)decanoyl))-αMeY-LIK((2-[2-(2- … (peptide)
peptide: B1 peptide
modifications: Aib2, αMeF(2F)6, 4Pal10, Aib11, αMeL13, Orn16, Aib20, Orn21, K24(Z1), αMeY25, K28(Z1), C-term NH2; Z1=AEEA-(γ-Glu)-(10-(4-carboxyphenoxy)decanoyl)
B6: Y-Aib-EGT-αMeF(2F)-TSD-4Pal-Aib-I-αMeL-LD-Orn-QAQ-Aib-Orn-FIK((2-[2-(2-Amino-ethoxy)-ethoxy]-acetyl)3-(γ-Glu)--(10-(4-carboxyphenoxy)decanoyl))-αMeY-LIK((2-[2-( … (peptide)
peptide: B1 peptide
modifications: Aib2, αMeF(2F)6, 4Pal10, Aib11, αMeL13, Orn16, Aib20, Orn21, K24(Z1), αMeY25, K28(Z1), C-term NH2; Z1=AEEA3-(γ-Glu)-(10-(4-carboxyphenoxy)decanoyl)
B7: Y-Aib-EGT-αMeF(2F)-TSD-4Pal-Aib-I-αMeL-LD-Orn-QAQ-Aib-Orn-FIK((2-[2-(2-Amino-ethoxy)-ethoxy]-acetyl)2-(γ-Glu)2--(10-(4-carboxyphenoxy)decanoyl))-αMeY-LIK((2-[2- … (peptide)
peptide: B1 peptide
modifications: Aib2, αMeF(2F)6, 4Pal10, Aib11, αMeL13, Orn16, Aib20, Orn21, K24(Z1), αMeY25, K28(Z1), C-term NH2; Z1=AEEA2-(γ-Glu)2-(10-(4-carboxyphenoxy)decanoyl)
B8: Y-Aib-EGT-αMeF(2F)-TSD-4Pal-Aib-I-αMeL-LD-Orn-QAQ-Aib-EFIK((2-[2-(2-Amino-ethoxy)-ethoxy]-acetyl)3-(γ-Glu)-(10-(4-carboxyphenoxy)decanoyl)-αMeY-LIK((2-[2-(2-Ami … (peptide)
peptide: B1 peptide with X21E
modifications: Aib2, αMeF(2F)6, 4Pal10, Aib11, αMeL13, Orn16, Aib20, K24(Z1), αMeY25, K28(Z1), C-term NH2; Z1=AEEA3-(γ-Glu)-(10-(4-carboxyphenoxy)decanoyl)

The target in one test is T2, human glucagon receptor (human, UniProt P47871 26-477).
T2 construct: whole, on cells; also called hGCGR; hGcgR
T2 sequence (P47871 26-477): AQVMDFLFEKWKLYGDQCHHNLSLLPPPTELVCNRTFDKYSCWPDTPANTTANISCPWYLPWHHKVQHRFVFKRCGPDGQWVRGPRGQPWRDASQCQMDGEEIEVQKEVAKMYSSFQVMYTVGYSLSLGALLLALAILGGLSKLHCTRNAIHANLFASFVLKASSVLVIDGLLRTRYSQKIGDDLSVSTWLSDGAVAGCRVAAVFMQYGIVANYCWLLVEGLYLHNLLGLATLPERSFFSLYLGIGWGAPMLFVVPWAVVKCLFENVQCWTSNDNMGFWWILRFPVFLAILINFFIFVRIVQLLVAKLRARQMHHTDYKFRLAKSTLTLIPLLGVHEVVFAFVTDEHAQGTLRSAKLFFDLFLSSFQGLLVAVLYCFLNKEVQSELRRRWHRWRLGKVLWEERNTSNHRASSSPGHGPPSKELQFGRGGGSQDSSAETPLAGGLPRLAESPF
In words: SPA competition vs [125I]-Gcg, hGcgR membranes.
In the case of B1, affinity was put at a Ki of 605 nM.

For B2, the Ki (as a rule, a measure of affinity in units of concentration, obtained from inhibition or displacement) is 258 nM.

B3 yielded a Ki of 342 nM.

As to B4, the Ki amounted to 88.5 nM.

Turning to B5, the Ki came out at 54.5 nM.

The molecule B6 had an inhibition constant (Ki) of 268 nM.

Turning to B7, the affinity corresponds to a Ki of 139 nM.

B8 gave a Ki of 753 nM.

Turning to Y[Aib]EGT[αMePhe(2-F)]TSD[Nle]SI[αMeL]LD[Orn]QAQ[Aib][Orn]FIK([AEEA-AEEA-γGlu-C14 diacid])[αMeY]LIK([AEEA-AEEA-γGlu-C14 diacid])GGPSSGAPPPS-NH2, affinity was put at a Ki of 37.8 nM.

The next test addresses T1, human GIP receptor. In words: SPA competition vs [125I]-GIP, hGIPR membranes.
Take B1: the inhibitory constant (Ki) was 0.0351 nM.

B2 yielded an inhibition constant (Ki) of 0.0376 nM.

Turning to B3, the Ki came to 0.0199 nM.

On to B4, for which the inhibition constant Ki was 0.0368 nM.

Turning to B5, the Ki was determined as 0.0183 nM.

Molecule B6 displayed a Ki of 0.0279 nM.

As for B7, the affinity corresponds to a Ki of 0.0294 nM.

In turn, B8 yielded an inhibitory constant (Ki) of 0.0261 nM.

In turn, Y[Aib]EGT[αMePhe(2-F)]TSD[Nle]SI[αMeL]LD[Orn]QAQ[Aib][Orn]FIK([AEEA-AEEA-γGlu-C14 diacid])[αMeY]LIK([AEEA-AEEA-γGlu-C14 diacid])GGPSSGAPPPS-NH2 had a Ki of 0.0288 nM.

For a further test, the target named is T3, human GLP-1 receptor (human, UniProt P43220 24-463).
T3 construct: whole, on cells; also called hGLP-1R; human glucagon-like peptide-1 receptor
The experiment in a line: SPA competition vs [125I]-GLP-1, hGLP-1R membranes. The method, boiled down:
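Competition binding in 25 mM HEPES pH 7.4, 2.5 mM CaCl₂, 1 mM MgCl₂, 0.1% bacitracin, 0.003% TWEEN-20, EDTA-free protease inhibitors. IC₅₀ from four-parameter nonlinear fit; Kᵢ given as geometric mean ± SEM, n = independent replicates on different days.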
B1 displayed an inhibitory constant (Ki) of 0.226 nM.

In turn, B2 registered a Ki of 0.254 nM.

Molecule B3 yielded an inhibition constant Ki of 0.2 nM.

Molecule B4 came in with a Ki of 0.307 nM.

On to B5, for which the Ki turned out to be 0.143 nM.

B6 showed a Ki of 0.143 nM.

B7 displayed a Ki of 0.189 nM.

In turn, B8 displayed a Ki of 0.352 nM.

On to Y[Aib]EGT[αMePhe(2-F)]TSD[Nle]SI[αMeL]LD[Orn]QAQ[Aib][Orn]FIK([AEEA-AEEA-γGlu-C14 diacid])[αMeY]LIK([AEEA-AEEA-γGlu-C14 diacid])GGPSSGAPPPS-NH2, for which affinity was put at a Ki of 0.27 nM.
